Assay results published in patent US20100092484A1 (published 2010).

T1: cynomolgus CD44 (on cells) (cynomolgus monkey, UniProt P16070 21-742 (human entry))
T1 chain: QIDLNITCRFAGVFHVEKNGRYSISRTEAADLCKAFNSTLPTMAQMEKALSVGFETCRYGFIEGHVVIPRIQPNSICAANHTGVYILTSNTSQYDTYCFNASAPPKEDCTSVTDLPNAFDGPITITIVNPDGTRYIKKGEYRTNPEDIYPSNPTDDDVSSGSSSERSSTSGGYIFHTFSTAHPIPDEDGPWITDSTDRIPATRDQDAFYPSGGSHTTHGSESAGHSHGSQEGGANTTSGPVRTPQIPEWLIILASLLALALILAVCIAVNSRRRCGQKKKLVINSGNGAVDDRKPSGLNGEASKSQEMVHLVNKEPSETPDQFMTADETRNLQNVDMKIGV

T2: lymphatic vessel endothelial hyaluronan receptor 1 protein (LYVE-1) (R&D, Cat. No. 2089-Ly) (UniProt Q9Y5Y7 24-232, limits assumed)
T2 sequence (looked up): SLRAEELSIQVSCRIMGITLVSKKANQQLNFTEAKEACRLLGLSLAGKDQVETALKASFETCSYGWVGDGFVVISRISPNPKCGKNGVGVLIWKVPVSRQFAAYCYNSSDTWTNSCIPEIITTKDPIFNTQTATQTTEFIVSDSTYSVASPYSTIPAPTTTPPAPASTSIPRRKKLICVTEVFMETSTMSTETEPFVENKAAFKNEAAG


What was measured:
human CD44 (on cells) [1] = target: T3, human CD44 (on cells) (human, UniProt P16070 21-742); assay: cell-based or functional assay
human CD44 (on cells) [2] = target: T3, human CD44 (on cells); assay: cell-based or functional assay; remark: listed apart in the source
[3] = target: T4, human CD44-IgG1 fusion protein (extracellular domain of human CD44 fused to human IgG1) (human); assay: ELISA: antibody pre-mixed with human CD44-Ig (0.6 µg/ml); inhibition of CD44-Ig binding to plate-coated hyaluronic acid (HA)
T4 construct: also called human CD44-Ig fusion protein; human CD44-Fc fusion protein
Procedure: (§1) Human anti-CD44 antibodies were evaluated for their ability to inhibit the interaction between HA (Sigma, Cat. No. H5388) and human CD44 protein (SEQ ID NO:3) as described in EXAMPLE 2.
(§2) Binding assays were conducted in 96 well ELISA assay plates (Immunolux HB Maxisorp 96-well plates, Nunc Cat. No. 442-404). On day one, 100 μl of rooster comb HA diluted in 50 mM Nabicarb buffer, pH 9.6 at 2.5 mg/ml was added to assay wells on the plate and incubate at 4° C. overnight. Approximately, 24 hours later the HA coated plates were washed four times using 300 μl of PBS buffer with 0.05% Tween-20 (Sigma, Cat. No. P1379). The plates were then blocked by adding 200 μl of 3% BSA in PBS to each well and incubated for 2 hours at 37° C. The blocked plates were then washed with PBS with 0.05% Tween-20. […] The mixture was incubated at room temperature for 60 minutes and then transferred to the HA-coated plates and incubate at room temperature for one hour. The plates were washed by PBS with 0.05% Tween-20. Anti-human IgG-HRP (Amersham Biosciences, Piscataway, N.J., State, Cat. No. NA933) diluted 1:500 in 1% BSA (to detect CD44-Ig that is bound to HA) were added to each wells and incubate at room temperature. […] The reactions were then stopped with 50 μl of stop solution and OD₄₅₀ values were measured on a plate reader.

human CD44 (on cells) [4] = target: T3, human CD44 (on cells); assay: cell-based or functional assay; remark: listed apart in the source
[5] = target: T4, human CD44-IgG1 fusion protein …; assay: ELISA on plate-coated CD44-Ig (50 ng), anti-human kappa-HRP detection
Procedure: (§3) A 96 well ELISA plate (Immuno Maxisorp plate, Nunc Cat. No. 442-404) was coated with 50 ng CD44-Ig fusion protein or LYVE-1 and incubated overnight at 4° C. The plates were then washed by PBS, 0.05% Tween-20 and blocked by 3% BSA in PBS for two hours at room temperature. […] The ELISA plates were incubated at room temperature for 1.5 hours. […] Plates were washed again, and […] of TMB were added and incubated for 5 to 10 minutes. ELISA reactions were stopped with stop solution and OD450 values were measured by a plate reader.

[6] = target: T1, cynomolgus CD44 (on cells); assay: cell-based or functional assay
[7] = target: T2, lymphatic vessel endothelial hyaluronan …; assay: ELISA on plate-coated LYVE-1 (50 ng), anti-human kappa-HRP detection
Procedure: as §3

[8] = target: T4, human CD44-IgG1 fusion protein …; assay: ELISA on plate-coated CD44-Ig against plate-coated LYVE-1
Procedure: as §3

[9] = target: T4, human CD44-IgG1 fusion protein …; assay: BIAcore SPR, human CD44-Fc fusion immobilised on a CM5 chip, antibody as analyte
Procedure: Surface plasmon resonance was used to measure the molecular interaction on a CM5 sensor chip coated with human CD44-Fc fusion protein (12 μg/ml, 10 mM Acetate, pH 4.0) on the surface. Anti-CD44 Abs at concentration of 5, 3, 2, 1, 0.5 and 0.25 μg/ml were screened by direct method. Human IgG1 and IgG2 standards were used to check nonspecific and background binding. Initial portion of the association and dissociation phase of the curves are used to calculate affinity and rate constants and is reported in TABLE 17.

human CD44 (on cells) [10] = target: T3, human CD44 (on cells); assay: cell-based or functional assay; remark: listed apart in the source
[11] = target: T1, cynomolgus CD44 (on cells); assay: cell-based or functional assay
[12] = target: T4, human CD44-IgG1 fusion protein …; assay: ELISA: antibody pre-mixed with human CD44-Ig (0.6 µg/ml); inhibition of CD44-Ig binding to plate-coated hyaluronic acid (HA, a polysaccharide)
Procedure: as §1, §2

[13] = target: T4, human CD44-IgG1 fusion protein …; assay: BIAcore 2000 SPR, human CD44-Ig immobilised on a CM-5 chip, antibody 100 to 0.1 ug/ml as analyte
Procedure: Human CD44-Ig (55 RU, 86 RU) and cyno CD44-Ig (99 RU, 116 RU) were immobilized to CM-5 chips at a concentration of 10 ug/ml in 10 mM Na Acetate pH 3.5. […] The chip was then regenerated with 50 mM NaOH and washed with HBS-EP (BIAcore 22-0512-44). Analysis was carried out on the Biacore 2000. Data was analyzed using BIAEvaluation™ software (n=2).

human CD44 (on cells) [14] = target: T3, human CD44 (on cells); assay: FACS competition against labelled anti-CD44 antibody MEM-85 on cells bearing human CD44; cells: 300-19 cells transfected with human CD44 per legend paragraph 42, but the range 0.2 to 20 µg/ml is that of the human peripheral T cell study in paragraph 322
human CD44 (on cells) [15] = target: T3, human CD44 (on cells); assay: FACS equilibrium binding analysis on 300-19 cells transduced with human CD44; printed as 'binding constant'
Procedure: The 300-19 cells which were transduced with retroviral vector encoding human CD44 protein and were washed two times by PBS. […] After 3 hours the cells were washed twice with FACS buffer. The cells were resuspended into 250 μl of 1% paraformaldehyde, (Electron Microscopy Science, Ft. Washington, Pa., Cat. No. 15710). The tubes were read using Becton Dickinson FACSCalibur and the data was analyzed using CellQuest Pro (Becton Dickinson).

| Binder | IC50 of IL-1β release from purified human PBMC stimulated by HA (human CD44 (on cells) [1]) [µg/mL] | IC50 of reduction of CD44 surface expression on human peripheral CD3+ T cells (FACS) (human CD44 (on cells) [2]) [µg/mL] | IC50 [3] [µg/mL] | IC50 of IFN-γ release from human peripheral blood activated by anti-CD3 and anti-CD28 antibodies (human CD44 (on cells) [4]) [µg/mL] | IC50 of IL-2 release from human peripheral blood activated by anti-CD3 and anti-CD28 antibodies (human CD44 (on cells) [4]) [µg/mL] | EC50 [5] [µg/mL] | IC50 of reduction of CD44 surface expression on cynomolgus peripheral CD3+ T cells (FACS) [6] [µg/mL] | binding result [7] | fold selectivity for CD44 over LYVE-1 [8] [fold] | Kd [9] [nM] | koff [9] [s⁻¹] | other results |
| --- | --- | --- | --- | --- | --- | --- | --- | --- | --- | --- | --- | --- |
| 2D1 WT/H38Q (mutated antibody 2D1.A3.D12: wild-type heavy chain, light chain H38Q) (antibody, human IgG1, kappa, V domains shown) VH: QVQLVQSGAEVKKPGASVKVSCKASGYIFTSYAMHWVRQAPGQRLEWMGWINAAIGSTKYSQKFQGRVTITRDTSASTAYMELSSLRSEDTAVYYCARDGWEDYYYHGMDVWGQGTTVTVSS VL: DIQMTQSPSSVSASVGDRVTITCRASQGISSWLAWYQQKPGKAPKLLIYAASSLQSGVPSRFSGSGSGTDFTLTISSLQPEDFATYYCQQANNFPWTFGQGTKVEIKR |  |  |  | 2.45 | 0.46 |  |  |  |  |  |  |  |
| anti-CD44 monoclonal antibody 2D1.A3.D12 (antibody, human IgG1, kappa, V domains shown) VH: QVQLVQSGAEVKKPGASVKVSCKASGYIFTSYAMHWVRQAPGQRLEWMGWINAAIGSTKYSQKFQGRVTITRDTSASTAYMELSSLRSEDTAVYYCARDGWEDYYYHGMDVWGQGTTVTVSS VL: DIQMTQSPSSVSASVGDRVTITCRASQGISSWLAWYQHKPGKAPKLLIYAASSLQSGVPSRFSGSGSGTDFTLTISSLQPEDFATYYCQQANNFPWTFGQGTKVEIKR | 0.23 | > 20 | 0.33 |  |  | 0.024 | > 20 | no binding (tested: 10 µg/ml) | > 100 | 2.01 | 0.000653 |  |
| anti-CD44 monoclonal antibody 1A9.A6.B9 (antibody, human IgG2, kappa, V domains shown, also called mAb 1A9.A6.B9) VH: QVQLVESGGGVVQPGRSLRLSCAASGFTFSSYGMHWVRQAPGKGLEWVAVIWYDGSNKFYADSVKGRFTISRDNSKNTLYLQMNSLRAEDTAVYYCARRSDYRGYYGMDVWGQGTTVTVSS VL: EIVLTQSPATLSLSPGERATLSCRASQSVINYLAWYQQKPGQAPRLLIYDASNRASGIPARFSGSGSGTDFTLTISSLEPEDFAVYYCQQRRNWPLTFGGGTKVEIKR | 0.83 | 2.8 |  | 2.46 | 0.58 | 0.011 | 0.82 | no binding (tested: 10 µg/ml) | > 100 | 0.6 | 0.000576 | IC50 of reduction of CD44 expression on human peripheral blood B cells (FACS) (human CD44 (on cells) [10]): 2.4 µg/mL; IC50 of reduction of CD44 expression on human peripheral blood T cells (FACS) (human CD44 (on cells) [10]): 2.6 µg/mL; IC50 of reduction of CD44 expression on human peripheral blood monocytes (FACS) (human CD44 (on cells) [10]): 3.3 µg/mL; IC50 of reduction of CD44 expression on cynomolgus peripheral blood T cells (FACS) [11]: 1.1 µg/mL; IC50 [12]: 0.41 µg/mL; Kd [13]: 0.051 nM; koff [13]: 0.00039 s⁻¹; IC50 (read off the curve) (human CD44 (on cells) [14]): ~3 µg/mL; Kd (human CD44 (on cells) [15]): 6.8 nM |

The next lines start with results.

| IC50 of IL-1β release from purified human PBMC stimulated by HA (human CD44 (on cells) [1]) [µg/mL] | IC50 of reduction of CD44 surface expression on human peripheral CD3+ T cells (FACS) (human CD44 (on cells) [2]) [µg/mL] | IC50 [3] [µg/mL] | IC50 of IFN-γ release from human peripheral blood activated by anti-CD3 and anti-CD28 antibodies (human CD44 (on cells) [4]) [µg/mL] | IC50 of IL-2 release from human peripheral blood activated by anti-CD3 and anti-CD28 antibodies (human CD44 (on cells) [4]) [µg/mL] | EC50 [5] [µg/mL] | IC50 of reduction of CD44 surface expression on cynomolgus peripheral CD3+ T cells (FACS) [6] [µg/mL] | binding result [7] | fold selectivity for CD44 over LYVE-1 [8] [fold] | Kd [9] [nM] | koff [9] [s⁻¹] | Binder | other results |
| --- | --- | --- | --- | --- | --- | --- | --- | --- | --- | --- | --- | --- |
| 0.4 | > 20 | 0.64 |  |  |  |  |  |  |  |  | anti-CD44 monoclonal antibody 10C8.2.3 (antibody, human IgG4, kappa, V domains shown) VH: EVQLMESGGGLVKPGGSLRLSCAASGFTFSSYSMNWVRQAPGKGLEWVSSITVRSSYIYYADSVKGRFTISRDNAKNSLYLQMNSLRAEDTAVYYCARVLAIAVPGTSYYYYGMDVWGQGTTVTVSS VL: not shown |  |
|  |  |  |  |  |  |  | no binding (tested: 10 µg/ml) |  |  |  | anti-CD44 monoclonal antibody 14G9.B8.B4 (antibody, human IgG1, kappa, V domains shown) VH: QVQLVQSGAEVKKPGASVKVSCKASGYTFTNYAMHWVRQAPGQRLEWMGWINTGNGNTKYSQKFQGRVTITRDTSASTAYMELSSLRSEDTAVYYCARFYSGSGSPWGQGTLVTVSS VL: not shown |  |
